Here are results for 15 substances from publication PMC3694306.

The term stoichiometry N denotes a count of units in the complex or per binding partner.

The target in test [1] is EssB-N D54C (cysteine-free template C48S, C108S, C171S), MTSSL spin-labelled (Geobacillus thermodenitrificans NG80-2). The test is described as follows: SEC; EssB-N cysteine mutants before and after MTSSL labelling (data not shown). (In general: In gel filtration, larger molecules generally elute earlier.)
The target in test [2] is EssB^Δ R86C (cysteine-free template C48S, C108S, C171S), MTSSL spin-labelled (Geobacillus thermodenitrificans NG80-2). The test is described as follows: SEC; detergent-solubilised membrane-bound protein; Superdex200 HR 30/100 GL, buffers with 0.02% DDM and 1 ug/ml DOPC.
Test [3] addresses EssB (full-length, membrane-bound, Geobacillus thermodenitrificans NG80-2) (Geobacillus thermodenitrificans NG80-2). The test is described as above.
Test [4] has as its target EssB^Δ E139C (cysteine-free template C48S, C108S, C171S), MTSSL spin-labelled (Geobacillus thermodenitrificans NG80-2). Described as above.
The target in test [5] is EssB^Δ E197C (cysteine-free template C48S, C108S, C171S), MTSSL spin-labelled (Geobacillus thermodenitrificans NG80-2). Described as above.
In test [6] the target is EssB-C^Δ (C-terminally truncated extracytosolic fragment of EssB, Ala241 to Gln397) (Geobacillus thermodenitrificans NG80-2). As to the kind of experiment: crystal structure; EssB-C^Δ, monoclinic C2, four molecules in the asymmetric unit, 3.0 M malonate pH 7.0, 10 mM ZnCl2, 2.4 Å; dimer made by crystallographic symmetry.
Test [7] has the same target. As to the kind of experiment: SEC; soluble fragments; Superdex75 prep grade HR 16/60, buffer C (10 mM sodium phosphate pH 7.8, 20 mM NaCl, 0.5 mM TCEP), column calibrated with molecular mass standards.
For test [8], the target named is EssB-N D54C (cysteine-free template C48S, C108S, C171S), before MTSSL labelling (Geobacillus thermodenitrificans NG80-2). The test is described as follows: SEC; EssB-N cysteine mutants before and after MTSSL labelling (data not shown).
Test [9] deals with EssB^Δ E59C (cysteine-free template C48S, C108S, C171S), MTSSL spin-labelled (Geobacillus thermodenitrificans NG80-2). As to the kind of experiment: SEC; detergent-solubilised membrane-bound protein; Superdex200 HR 30/100 GL, buffers with 0.02% DDM and 1 ug/ml DOPC.
The target of test [10] is EssB-N (N-terminal, predicted cytoplasmic fragment of EssB, Ser2 to Asp214) (Geobacillus thermodenitrificans NG80-2). The test is described as follows: native gel or EMSA; blue native PAGE, linear 4-16% gradient Native Bis-Tris gel, 3 ug purified EssB-N. A general note: In EMSA bound probe runs differently from free probe, usually more slowly.
The target is the same in test [11]. As to the kind of experiment: SEC; EssB-N (2 mg) in 100 mM citrate pH 5.5, 300 mM NaCl, 0.5% TCEP, 10% glycerol, 30 min at room temperature, Superdex75 HR 30/100 GL.
The target is the same in test [12]. As to the kind of experiment: SEC; EssB-N (2 mg) in various test buffers with 0.5% TCEP and 10% glycerol (Tris-HCl pH 7.8 with 20 mM NaCl, with or without 5 mM EDTA; phosphate pH 7.8 or Bis-Tris pH 5.5 with 300 mM NaCl), 30 min at room temperature, Superdex75 HR 30/100 GL.
The target in test [13] is EssB^Δ (membrane-bound EssB truncated by 31 C-terminal residues) (Geobacillus thermodenitrificans NG80-2). As to the kind of experiment: SEC; detergent-solubilised membrane-bound protein; Superdex200 HR 30/100 GL, buffers with 0.02% DDM and 1 ug/ml DOPC.
Test [14] has as its target EssB^Δ E273C (cysteine-free template C48S, C108S, C171S), MTSSL spin-labelled (Geobacillus thermodenitrificans NG80-2). The test is described as above.
Test [15] concerns the target EssB^Δ D54C (cysteine-free template C48S, C108S, C171S), MTSSL spin-labelled (Geobacillus thermodenitrificans NG80-2). The description is as above.
Test [16] concerns the target EssB^Δ N115C (cysteine-free template C48S, C108S, C171S), MTSSL spin-labelled (Geobacillus thermodenitrificans NG80-2). The description is as above.
The target in test [17] is EssB^Δ S93C (cysteine-free template C48S, C108S, C171S), MTSSL spin-labelled (Geobacillus thermodenitrificans NG80-2). Described as above.
The target of test [18] is EssB-C (C-terminal extracytosolic fragment of EssB, Ala241 to Lys428) (Geobacillus thermodenitrificans NG80-2). The test is described as follows: crystal structure; EssB-C, tetragonal P4(3)2(1)2, two molecules in the asymmetric unit, 2.1 M malate pH 7.0, 3.2 Å; dimer made by crystallographic symmetry.
For test [19] the target is unchanged. As to the kind of experiment: SEC; soluble fragments; Superdex75 prep grade HR 16/60, buffer C (10 mM sodium phosphate pH 7.8, 20 mM NaCl, 0.5 mM TCEP), column calibrated with molecular mass standards.

With “EssB-N D54C (cysteine-free template C48S, C108S, C171S), MTSSL spin-labelled (domain or fragment)”, in test [1], the stoichiometry N came to 2.

In test [2], “EssB^Δ R86C (cysteine-free template C48S, C108S, C171S), MTSSL spin-labelled (domain or fragment)” showed a stoichiometry N of 2.

Take “EssB (full-length, membrane-bound, Geobacillus thermodenitrificans NG80-2) (natural protein)”: in test [3], the stoichiometry N was determined as 2.

In turn, “EssB^Δ E139C (cysteine-free template C48S, C108S, C171S), MTSSL spin-labelled (domain or fragment)” had a stoichiometry N in test [4] of 2.

The substance “EssB^Δ E197C (cysteine-free template C48S, C108S, C171S), MTSSL spin-labelled (domain or fragment)” yielded a stoichiometry N in test [5] of 2.

Take “EssB-C^Δ (C-terminally truncated extracytosolic fragment of EssB, Ala241 to Gln397) (domain or fragment)”: the stoichiometry N in test [6] and in test [7] was 2 each time.

For the substance “EssB-N D54C (cysteine-free template C48S, C108S, C171S), before MTSSL labelling (domain or fragment)”, in test [8], the stoichiometry N is 2.

Take “EssB^Δ E59C (cysteine-free template C48S, C108S, C171S), MTSSL spin-labelled (domain or fragment)”: the stoichiometry N in [9] was 2.

For “EssB-N (N-terminal, predicted cytoplasmic fragment of EssB, Ser2 to Asp214) (domain or fragment)”, the stoichiometry N in test [10] and in [12] was 2 throughout. Also, in [11], the percent monomeric was above 10%.

In turn, “EssB^Δ (membrane-bound EssB truncated by 31 C-terminal residues) (domain or fragment)” showed a stoichiometry N in test [13] of 2.

For the substance “EssB^Δ E273C (cysteine-free template C48S, C108S, C171S), MTSSL spin-labelled (domain or fragment)”, in test [14], the stoichiometry N was determined as 2.

“EssB^Δ D54C (cysteine-free template C48S, C108S, C171S), MTSSL spin-labelled (domain or fragment)” returned a stoichiometry N in test [15] of 2.

Take “EssB^Δ N115C (cysteine-free template C48S, C108S, C171S), MTSSL spin-labelled (domain or fragment)”: the stoichiometry N in test [16] was 2.

“EssB^Δ S93C (cysteine-free template C48S, C108S, C171S), MTSSL spin-labelled (domain or fragment)” displayed a stoichiometry N in [17] of 2.

Take “EssB-C (C-terminal extracytosolic fragment of EssB, Ala241 to Lys428) (domain or fragment)”: the stoichiometry N in test [18] and in test [19] was 2 throughout.
